Measurements as given in US20230312675A1.

Key:
Assay in all cases: cell-based or functional assay
[1] = target: EGFR on human cell lines (A431, T98G, LN18, U87, U87high, HRCE) (human) (UniProt P00533)
[2] = target: truncated CD19 on EL4 cells (UniProt P15391)
[3] = target: Truncated EGFR (human EGFR containing only extracellular and transmembrane domains) (human) (UniProt P00533)

Chain of UniProt P15391 (P15391 20-333 limits assumed): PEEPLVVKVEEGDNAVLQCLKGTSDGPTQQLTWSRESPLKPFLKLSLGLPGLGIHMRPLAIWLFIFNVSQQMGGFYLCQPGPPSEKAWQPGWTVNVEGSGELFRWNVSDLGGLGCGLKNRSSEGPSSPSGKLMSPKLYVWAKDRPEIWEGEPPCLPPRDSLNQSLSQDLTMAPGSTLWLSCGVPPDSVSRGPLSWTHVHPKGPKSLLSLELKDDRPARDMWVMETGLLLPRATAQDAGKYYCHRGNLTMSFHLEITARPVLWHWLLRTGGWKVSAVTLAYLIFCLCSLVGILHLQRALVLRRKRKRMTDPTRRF

| percent CAR remaining on T-cell surface after 12 hours of co-culture with U87 [1] [%] | percent CAR remaining on T-cell surface after 12 hours of co-culture with U87high [1] [%] | percent CAR remaining on T-cell surface after 48 hours of co-culture with U87 [1] [%] | percent CAR remaining on T-cell surface after 48 hours of co-culture with U87high [1] [%] | reduction in U87 cell number relative to controls grown without CAR+ T cells [1] [%] | reduction in U87high cell number relative to controls grown without CAR+ T cells [1] [%] | specific lysis of HRCE, 10:1 E:T ratio [1] [%] | specific lysis of HRCE, DNA-modified T cells, 10:1 E:T ratio, 24 hrs [1] [%] | specific lysis of HRCE, DNA-modified T cells, 10:1 E:T ratio, 120 hrs [1] [%] | specific lysis of HRCE, RNA-modified T cells, 10:1 E:T ratio, 24 hrs [1] [%] | specific lysis of HRCE, RNA-modified T cells, 10:1 E:T ratio, 120 hrs [1] [%] | specific lysis of CD19+ EL4 (non-specific target) [2] [%] | numeric expansion of CAR+ T cells over 28 days of co-culture with tEGFR+ K562 aAPC [3] [fold] | production of IFN-γ in response to tEGFR+ EL4, DNA-modified T cells, 24 hour time point [3] [%] | production of IFN-γ in response to tEGFR+ EL4, DNA-modified T cells, 120 hour time point [3] [%] | production of IFN-γ in response to tEGFR+ EL4, RNA-modified T cells, 24 hours after RNA transfer [3] [%] | production of IFN-γ in response to tEGFR+ EL4, RNA-modified T cells, 120 hours after RNA transfer [3] [%] | proportion of tEGFR+ EL4 in 1:1 co-culture with CAR+ T cells after 5 days [3] [%] | specific lysis of tEGFR+ EL4 [3] [%] | Substance |
| --- | --- | --- | --- | --- | --- | --- | --- | --- | --- | --- | --- | --- | --- | --- | --- | --- | --- | --- | --- |
| 68 | 37.4 | 95.5 | 42.6 | 40 | 80 | 81.1 | 45.5 | 51.6 | 39.5 | 19.8 | 17.3 | 1000 | 40.3 | 48.6 | 14.2 | 1.1 | < 10 | 57.5 | Cetuximab-derived CAR |
| 126 | 124 | 94.4 | 95.7 | – | 80 | 30.4 | – | – | – | – | 12.3 | 1000 | – | – | – | – | 80 | 21.2 | Nimotuzumab-derived CAR |
